Key:
[1] = molecular target: PxP(Mcp1ct)-VABct(1,944-2,635)-His6 (C. thermophilum); experiment: SEC; Superdex 200 gel filtration in buffer A (20 mM Hepes pH 7.8, 500 mM NaCl, 1 mM TCEP, 10% glycerol); monomer or dimer read from the elution profile
[2] = molecular target: PxP(Mcp1ct)-VABct(1,944-2,635)-His6 (C. thermophilum); experiment: negative stain EM; class averages of purified constructs; monomer or dimer
[3] = molecular target: the molecule itself; experiment: SEC; Superdex 200 gel filtration in buffer A (20 mM Hepes pH 7.8, 500 mM NaCl, 1 mM TCEP, 10% glycerol); monomer or dimer read from the elution profile

| Molecule | stoichiometry N [1] | stoichiometry N [2] | stoichiometry N [3] |
| --- | --- | --- | --- |
| PxP(Mcp1ct)-VABct(1,944-2,635)-His6 | 2 | 2 |  |
| PxP(Mcp1sc)-VABsc(1,869-2,545)-His6 (other, S. cerevisiae, UniProt Q12106 2-20, looked up, Mcp1p of S. cerevisiae, Pro-X-Pro motif, residues 2-20; also called PXP-VABsc; source: E. coli BL21 (DE3), purified (Ni-NTA, Superdex 200)) IKLHEVPPEPVDPASLPHDKPYQLVNDTELDFDVWIQDKTTEDNKNEVVLLKANTSLPWEFEDWRSIREKLDIDKSKNILGVCVSGQNYKTIMNIDATTEGENLHVLSPPRNNVHNRIVCEARCDENNVKIITFRSTLVIENTTSTEIELLVDSKDPNKPSLKYAIKPHQSKSVPVEYAYDSDIRIRPASEDIYDWSQQTLSWKSLLSNQMSIFCSSKEDSNQRFHFEIGAKYDEREPLAKIFPHMKIVVSASMTIENLLPADINFSIFDKREEKRTDFLKTGESMEVHHISLDSFLLMSVQPLQDEASASKPSIVNTPHKSPLNPEDSLSLTLSGGQNLLLKLDYKNIDGTRSKVIRIYSPYIIMNSTDRELYIQSSLLNIAQSKILLENEKRYTIPKMFSFDKEDDKSNRARIRFKESEWSSKLSFDAIGQSFDASVRIKNKEQESNLGINISEGKGKYLLSKVIEIAPRYIISNTLDIPIEVCETGSMDVQQIESNITKPLYRMRNIVDKQLVLKFLGGDSNWSQPFFIKNVGVTYLKVLKNSRHKLLKIEILLDKATIFIRIKDGGDRWPFSIRNFSDHDFIFYQRDPRKVSDPYKDDQSNESSSRSFKPIFYRIPSKSIMPYAWDFPTAKEKYLVLESGTRTREVRLAEIGELPPLRLDKRSKDKPAPIVGLHVVADDDMQALVIVNYKAN |  |  | 2 |
| PxP(Spo71sc)-VABsc(1,869-2,545)-His6 (other, S. cerevisiae, UniProt Q03868 380-400, looked up, Spo71p of S. cerevisiae, Pro-X-Pro motif, residues 380-400; also called PXP-VABsc; source: E. coli BL21 (DE3), purified (Ni-NTA, Superdex 200)) SHLPFINILPPWPTELTEEERKPYQLVNDTELDFDVWIQDKTTEDNKNEVVLLKANTSLPWEFEDWRSIREKLDIDKSKNILGVCVSGQNYKTIMNIDATTEGENLHVLSPPRNNVHNRIVCEARCDENNVKIITFRSTLVIENTTSTEIELLVDSKDPNKPSLKYAIKPHQSKSVPVEYAYDSDIRIRPASEDIYDWSQQTLSWKSLLSNQMSIFCSSKEDSNQRFHFEIGAKYDEREPLAKIFPHMKIVVSASMTIENLLPADINFSIFDKREEKRTDFLKTGESMEVHHISLDSFLLMSVQPLQDEASASKPSIVNTPHKSPLNPEDSLSLTLSGGQNLLLKLDYKNIDGTRSKVIRIYSPYIIMNSTDRELYIQSSLLNIAQSKILLENEKRYTIPKMFSFDKEDDKSNRARIRFKESEWSSKLSFDAIGQSFDASVRIKNKEQESNLGINISEGKGKYLLSKVIEIAPRYIISNTLDIPIEVCETGSMDVQQIESNITKPLYRMRNIVDKQLVLKFLGGDSNWSQPFFIKNVGVTYLKVLKNSRHKLLKIEILLDKATIFIRIKDGGDRWPFSIRNFSDHDFIFYQRDPRKVSDPYKDDQSNESSSRSFKPIFYRIPSKSIMPYAWDFPTAKEKYLVLESGTRTREVRLAEIGELPPLRLDKRSKDKPAPIVGLHVVADDDMQALVIVNYKAN |  |  | 2 |
| PxP(Ypt35sc)-VABsc(1,869-2,545)-His6 (other, S. cerevisiae, UniProt P38815 2-22, looked up, Ypt35p of S. cerevisiae, Pro-X-Pro motif, residues 2-22; also called PXP-VABsc; source: E. coli BL21 (DE3), purified (Ni-NTA, Superdex 200)) SDKISFLPPEPIQLLDEDSTEKPYQLVNDTELDFDVWIQDKTTEDNKNEVVLLKANTSLPWEFEDWRSIREKLDIDKSKNILGVCVSGQNYKTIMNIDATTEGENLHVLSPPRNNVHNRIVCEARCDENNVKIITFRSTLVIENTTSTEIELLVDSKDPNKPSLKYAIKPHQSKSVPVEYAYDSDIRIRPASEDIYDWSQQTLSWKSLLSNQMSIFCSSKEDSNQRFHFEIGAKYDEREPLAKIFPHMKIVVSASMTIENLLPADINFSIFDKREEKRTDFLKTGESMEVHHISLDSFLLMSVQPLQDEASASKPSIVNTPHKSPLNPEDSLSLTLSGGQNLLLKLDYKNIDGTRSKVIRIYSPYIIMNSTDRELYIQSSLLNIAQSKILLENEKRYTIPKMFSFDKEDDKSNRARIRFKESEWSSKLSFDAIGQSFDASVRIKNKEQESNLGINISEGKGKYLLSKVIEIAPRYIISNTLDIPIEVCETGSMDVQQIESNITKPLYRMRNIVDKQLVLKFLGGDSNWSQPFFIKNVGVTYLKVLKNSRHKLLKIEILLDKATIFIRIKDGGDRWPFSIRNFSDHDFIFYQRDPRKVSDPYKDDQSNESSSRSFKPIFYRIPSKSIMPYAWDFPTAKEKYLVLESGTRTREVRLAEIGELPPLRLDKRSKDKPAPIVGLHVVADDDMQALVIVNYKAN |  |  | 2 |

Reference: PMC8978259, “Structural and biochemical insights into lipid transport by VPS13 proteins” (The Journal of Cell Biology, 2022)
